Assay results: PMC8943033, “A toolkit for recombinant production of seven human EGF family growth factors in active conformation” (Scientific Reports, 2022)

Columns and labels:
[1] = biological target: human amphiregulin, recombinant heparin-binding and EGF domains (human, UniProt P15514 101-198); test: SEC; Superdex 75 10/300 GL, 25 mM Tris.HCl pH 8.0; 150 mM NaCl, flow rate 0.8 mL/min; oligomeric state read from the elution volume; conditions: both partners purified
[2] = biological target: human heparin-binding epidermal growth factor, recombinant heparin-binding and EGF domains (human, UniProt Q99075 63-148); test: as above; conditions: both partners purified

B1: human amphiregulin, recombinant heparin-binding and EGF domains (ligand)
chain: SVRVEQVVKPPQNKTESENTSDKPKRKKKGGKNGKNRRNRKKKNPCNAEFQNFCIHGECKYIEHLEAVTCKCQQEYFGERCGEKSMKTHSMIDSSLSK
modifications: three disulfides (C1-C3, C2-C4, C5-C6); SEC suggests a dimer; N-terminal pET32a linker remnant omitted / three disulfides (C1-C3, C2-C4, C5-C6); SEC suggests a dimer; N-terminal pET32a linker remnant
stoichiometry N [1]: 2

B2: human heparin-binding epidermal growth factor, recombinant heparin-binding and EGF domains (ligand)
chain: DLQEADLDLLRVTLSSKPQALATPNKEEHGKRKKKGKGLGKKRDPCLRKYKDFCIHGECKYVKELRAPSCICHPGYHGERCHGLSL
modifications: three disulfides (C1-C3, C2-C4, C5-C6); SEC suggests a dimer; N-terminal pET32a linker remnant omitted / three disulfides (C1-C3, C2-C4, C5-C6); SEC suggests a dimer; N-terminal pET32a linker remnant
stoichiometry N [2]: 2
